Test results taken from the supplement of paper PMC10065799, “High-throughput profiling of sequence recognition by tyrosine kinases and SH2 domains using bacterial peptide display” (eLife, 2023).

Key:
AncSZ = test: phosphorylation enrichment, bacterial display (enrichment ratio); higher = better substrate or ligand; peptides without Tyr show the background
EPHB1 = EPHB1 (UniProt P54762); test: as above
EPHB2 = EPHB2 (UniProt P29323); test: as above
FGFR1 = FGFR1 (UniProt P11362); test: as above
Sequence of FGFR1 (P11362 whole entry, looked up): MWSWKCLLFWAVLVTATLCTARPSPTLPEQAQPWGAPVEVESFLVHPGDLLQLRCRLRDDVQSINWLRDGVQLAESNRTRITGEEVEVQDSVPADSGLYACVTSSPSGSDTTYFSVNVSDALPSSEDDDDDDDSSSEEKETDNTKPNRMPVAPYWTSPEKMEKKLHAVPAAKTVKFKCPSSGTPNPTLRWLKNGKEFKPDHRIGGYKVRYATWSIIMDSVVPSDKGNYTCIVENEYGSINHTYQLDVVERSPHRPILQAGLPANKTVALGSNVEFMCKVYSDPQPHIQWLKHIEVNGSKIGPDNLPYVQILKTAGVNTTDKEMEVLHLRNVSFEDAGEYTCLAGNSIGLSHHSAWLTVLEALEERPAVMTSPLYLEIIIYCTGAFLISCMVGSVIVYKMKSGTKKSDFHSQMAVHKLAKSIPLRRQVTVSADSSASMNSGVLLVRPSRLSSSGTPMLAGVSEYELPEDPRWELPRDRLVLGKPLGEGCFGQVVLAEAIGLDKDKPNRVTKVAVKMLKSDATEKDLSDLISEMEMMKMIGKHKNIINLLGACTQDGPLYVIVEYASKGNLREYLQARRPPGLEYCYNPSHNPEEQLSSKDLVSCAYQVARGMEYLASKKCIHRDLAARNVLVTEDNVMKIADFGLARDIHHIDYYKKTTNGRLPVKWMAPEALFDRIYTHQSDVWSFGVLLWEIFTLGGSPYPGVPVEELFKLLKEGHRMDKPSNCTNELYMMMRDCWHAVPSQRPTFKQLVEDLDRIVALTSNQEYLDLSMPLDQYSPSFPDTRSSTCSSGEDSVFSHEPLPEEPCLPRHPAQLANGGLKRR

FGFR3 = FGFR3 (UniProt P22607); test: as above
Fer (mouse) = test: as above
Fes = Fes (UniProt P07332); test: as above
Fyn = Fyn (UniProt P06241); test: as above
Sequence of Fyn (P06241 whole entry, looked up): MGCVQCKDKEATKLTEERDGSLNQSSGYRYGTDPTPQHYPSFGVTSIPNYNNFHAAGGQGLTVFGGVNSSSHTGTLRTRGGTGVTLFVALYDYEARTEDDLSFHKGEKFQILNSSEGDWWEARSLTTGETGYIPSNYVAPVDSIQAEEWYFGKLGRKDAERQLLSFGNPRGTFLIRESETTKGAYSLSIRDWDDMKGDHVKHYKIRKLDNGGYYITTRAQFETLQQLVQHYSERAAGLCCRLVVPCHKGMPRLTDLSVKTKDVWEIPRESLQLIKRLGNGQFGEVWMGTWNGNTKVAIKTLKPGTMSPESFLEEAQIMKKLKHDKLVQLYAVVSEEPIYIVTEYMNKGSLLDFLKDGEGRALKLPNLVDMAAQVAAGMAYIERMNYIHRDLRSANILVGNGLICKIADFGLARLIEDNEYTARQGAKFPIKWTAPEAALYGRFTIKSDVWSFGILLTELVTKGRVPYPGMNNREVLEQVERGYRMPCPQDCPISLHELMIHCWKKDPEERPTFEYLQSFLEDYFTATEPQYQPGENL

Hck = Hck (UniProt P08631); test: as above
Sequence of Hck (P08631 whole entry, looked up): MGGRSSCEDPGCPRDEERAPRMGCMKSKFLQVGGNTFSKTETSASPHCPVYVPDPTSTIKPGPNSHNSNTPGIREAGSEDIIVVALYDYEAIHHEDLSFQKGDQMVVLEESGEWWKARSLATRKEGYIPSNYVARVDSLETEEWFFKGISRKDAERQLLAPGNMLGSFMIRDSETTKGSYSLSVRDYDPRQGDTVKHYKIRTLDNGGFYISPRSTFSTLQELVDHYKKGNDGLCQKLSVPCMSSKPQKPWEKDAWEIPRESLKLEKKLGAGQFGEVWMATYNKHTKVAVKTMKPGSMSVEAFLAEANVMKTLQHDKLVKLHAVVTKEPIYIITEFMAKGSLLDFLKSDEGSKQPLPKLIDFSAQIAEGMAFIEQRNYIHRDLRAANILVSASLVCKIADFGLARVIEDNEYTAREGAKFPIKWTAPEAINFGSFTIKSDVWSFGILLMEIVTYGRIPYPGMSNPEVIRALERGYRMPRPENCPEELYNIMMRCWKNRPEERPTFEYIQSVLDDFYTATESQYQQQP

Jak2 = Jak2 (UniProt O60674); test: as above
Sequence of Jak2 (O60674 whole entry, looked up): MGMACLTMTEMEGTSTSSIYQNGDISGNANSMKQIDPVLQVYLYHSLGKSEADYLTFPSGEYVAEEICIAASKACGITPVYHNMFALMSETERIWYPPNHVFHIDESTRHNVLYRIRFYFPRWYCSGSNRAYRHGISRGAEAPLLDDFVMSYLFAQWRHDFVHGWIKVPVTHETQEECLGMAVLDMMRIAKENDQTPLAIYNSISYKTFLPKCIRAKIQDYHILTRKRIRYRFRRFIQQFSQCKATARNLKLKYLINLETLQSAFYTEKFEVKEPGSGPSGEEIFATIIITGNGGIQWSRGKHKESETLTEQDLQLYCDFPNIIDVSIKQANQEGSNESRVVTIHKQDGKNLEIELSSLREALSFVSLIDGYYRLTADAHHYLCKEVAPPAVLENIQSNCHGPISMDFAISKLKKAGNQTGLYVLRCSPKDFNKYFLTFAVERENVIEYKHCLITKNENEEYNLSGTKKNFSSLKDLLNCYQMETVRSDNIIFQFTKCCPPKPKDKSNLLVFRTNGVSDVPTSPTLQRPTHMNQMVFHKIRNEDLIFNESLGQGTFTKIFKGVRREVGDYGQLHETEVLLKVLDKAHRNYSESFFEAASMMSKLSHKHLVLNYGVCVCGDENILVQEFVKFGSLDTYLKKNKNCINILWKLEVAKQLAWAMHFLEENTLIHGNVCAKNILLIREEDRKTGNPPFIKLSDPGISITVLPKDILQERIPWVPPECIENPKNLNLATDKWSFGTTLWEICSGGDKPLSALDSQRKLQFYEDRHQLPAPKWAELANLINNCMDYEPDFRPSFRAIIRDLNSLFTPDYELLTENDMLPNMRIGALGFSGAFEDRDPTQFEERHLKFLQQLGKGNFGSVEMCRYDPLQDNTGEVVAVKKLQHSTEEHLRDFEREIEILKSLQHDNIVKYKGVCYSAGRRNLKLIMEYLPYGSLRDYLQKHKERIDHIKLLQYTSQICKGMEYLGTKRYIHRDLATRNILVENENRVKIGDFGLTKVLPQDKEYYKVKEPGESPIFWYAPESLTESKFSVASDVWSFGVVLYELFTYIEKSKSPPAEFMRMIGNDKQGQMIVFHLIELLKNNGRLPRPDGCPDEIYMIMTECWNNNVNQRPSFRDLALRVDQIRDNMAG

MERTK = MERTK (UniProt Q12866); test: as above
Sequence of MERTK (Q12866 whole entry, looked up): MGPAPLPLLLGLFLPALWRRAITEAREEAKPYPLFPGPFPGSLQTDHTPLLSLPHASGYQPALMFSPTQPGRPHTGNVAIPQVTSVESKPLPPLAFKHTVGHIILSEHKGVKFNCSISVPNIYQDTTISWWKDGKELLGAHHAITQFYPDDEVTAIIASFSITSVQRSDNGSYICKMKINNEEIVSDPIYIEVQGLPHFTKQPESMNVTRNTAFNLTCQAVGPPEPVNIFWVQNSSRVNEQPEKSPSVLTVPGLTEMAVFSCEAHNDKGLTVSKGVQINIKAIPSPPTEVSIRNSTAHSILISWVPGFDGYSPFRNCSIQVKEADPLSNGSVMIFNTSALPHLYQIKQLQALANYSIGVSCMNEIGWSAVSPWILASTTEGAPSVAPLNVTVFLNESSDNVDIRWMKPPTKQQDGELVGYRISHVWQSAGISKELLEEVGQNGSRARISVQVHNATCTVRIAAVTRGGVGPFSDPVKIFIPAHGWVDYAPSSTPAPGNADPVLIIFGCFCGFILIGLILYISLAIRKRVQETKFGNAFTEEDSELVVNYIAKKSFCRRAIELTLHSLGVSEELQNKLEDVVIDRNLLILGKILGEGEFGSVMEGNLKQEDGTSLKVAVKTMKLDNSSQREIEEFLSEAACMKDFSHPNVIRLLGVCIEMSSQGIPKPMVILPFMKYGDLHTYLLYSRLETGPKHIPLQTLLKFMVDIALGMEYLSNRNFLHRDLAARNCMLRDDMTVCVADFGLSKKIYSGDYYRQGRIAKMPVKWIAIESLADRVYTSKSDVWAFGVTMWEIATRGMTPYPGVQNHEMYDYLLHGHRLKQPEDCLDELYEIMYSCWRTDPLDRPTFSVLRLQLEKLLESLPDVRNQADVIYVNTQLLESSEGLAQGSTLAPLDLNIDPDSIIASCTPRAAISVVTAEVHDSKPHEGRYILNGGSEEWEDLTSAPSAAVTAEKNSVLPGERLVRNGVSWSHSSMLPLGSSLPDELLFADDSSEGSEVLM

c-Abl (mouse) = test: as above
c-Src = test: as above
Grb2 SH2 = Grb2 SH2 (UniProt P62993); test: SH2 binding enrichment of the phosphorylated peptide, bacterial display (enrichment ratio); higher = better substrate or ligand; peptides without Tyr show the background
SHP2-C SH2 = test: as above
c-Src SH2 = test: as above
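Throughout, for SH2 binding enrichment of the phosphorylated peptide, bacterial display: peptide library displayed on the E. coli surface as eCPX fusions, selected cells deep-sequenced, score is each peptide's frequency after selection divided by its frequency in the input.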
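Throughout, for phosphorylation enrichment, bacterial display: 11-residue human phosphosite peptides and single-mutation variants displayed on the E. coli surface, counted by deep sequencing, each peptide's frequency after selection divided by its frequency in the unselected input library; frequency after pTyr selection over input frequency; kinase dosed for 20-30% of maximal phosphorylation in three min.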

Sequence of EPHB1 (P54762 whole entry, looked up): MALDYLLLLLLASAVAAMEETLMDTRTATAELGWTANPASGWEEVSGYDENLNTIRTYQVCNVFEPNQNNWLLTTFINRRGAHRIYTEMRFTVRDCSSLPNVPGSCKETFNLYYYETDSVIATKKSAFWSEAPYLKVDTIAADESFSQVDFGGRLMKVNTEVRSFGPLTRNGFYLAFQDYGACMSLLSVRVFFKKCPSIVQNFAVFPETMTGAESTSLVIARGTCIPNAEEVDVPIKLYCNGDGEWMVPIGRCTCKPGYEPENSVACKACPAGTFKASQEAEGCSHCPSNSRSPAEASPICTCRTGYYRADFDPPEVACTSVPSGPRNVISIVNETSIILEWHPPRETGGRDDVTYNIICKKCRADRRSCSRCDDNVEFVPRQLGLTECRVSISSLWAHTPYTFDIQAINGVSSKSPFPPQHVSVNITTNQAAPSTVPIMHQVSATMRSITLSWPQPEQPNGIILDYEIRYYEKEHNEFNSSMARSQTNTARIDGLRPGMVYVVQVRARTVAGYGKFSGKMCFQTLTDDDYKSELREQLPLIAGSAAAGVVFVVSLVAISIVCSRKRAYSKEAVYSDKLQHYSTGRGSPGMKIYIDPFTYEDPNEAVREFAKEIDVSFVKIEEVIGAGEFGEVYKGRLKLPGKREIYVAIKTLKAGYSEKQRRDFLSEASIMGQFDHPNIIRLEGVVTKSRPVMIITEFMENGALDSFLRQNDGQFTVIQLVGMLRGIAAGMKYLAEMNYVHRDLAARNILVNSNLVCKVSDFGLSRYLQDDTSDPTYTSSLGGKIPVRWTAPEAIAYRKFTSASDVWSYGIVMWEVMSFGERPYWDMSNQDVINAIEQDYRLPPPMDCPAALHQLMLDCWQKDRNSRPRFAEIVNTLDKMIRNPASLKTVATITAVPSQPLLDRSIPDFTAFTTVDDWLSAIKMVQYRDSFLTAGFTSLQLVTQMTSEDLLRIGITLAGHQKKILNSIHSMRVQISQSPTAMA

Sequence	SH2 binding enrichment (Grb2 SH2)	SH2 binding enrichment (SHP2-C SH2)	SH2 binding enrichment (c-Src SH2)	phosphorylation enrichment (AncSZ)	phosphorylation enrichment (EPHB1)	phosphorylation enrichment (EPHB2)	phosphorylation enrichment (FGFR1)	phosphorylation enrichment (FGFR3)	phosphorylation enrichment (Fer (mouse))	phosphorylation enrichment (Fes)	phosphorylation enrichment (Fyn)	phosphorylation enrichment (Hck)	phosphorylation enrichment (Jak2)	phosphorylation enrichment (MERTK)	phosphorylation enrichment (c-Abl (mouse))	phosphorylation enrichment (c-Src)
SWKRRYFLLWA [APBB1IP_Y331_R335W]	0.684	0.646	0.428	0.686	0.443	0.5	0.479	0.545	0.433	0.591	0.576	0.497	0.571	0.59	0.478	0.661
SYDLDYDSVQP [MYC_Y16_N11S]	0.804	0.633	1.19	2.5	1.03	1.73	0.589	0.862	0.995	1.21	0.723	0.762	1.04	0.443	0.741	0.796
TAALWYIFSHT [ENG_Y612_YF]	1.02	0.785	0.713	1.26	0.733	0.593	0.543	1.03	0.496	1.5	0.514	0.536	1.36	0.491	1.19	0.722
TARWEYMHSPS [CPOX_Y429]	1.25	0.778	0.688	0.927	0.965	0.624	0.536	0.69	0.334	2.01	0.387	0.356	1.23	1.08	0.363	1.14
TFGVVYKARNK [CDK2_Y19_YF]	0.801	0.671	0.495	0.928	0.439	0.518	0.587	0.694	0.481	0.917	0.422	0.39	0.805	0.321	0.565	0.346
TFRPPYYHRNC [HGD_Y333]	1.38	1.86	1.18	0.721	0.506	0.474	0.497	0.486	0.375	0.878	0.562	0.524	0.686	0.498	0.599	0.559
THLAPYSDELR [APOA1_Y190]	0.723	0.909	0.437	0.722	0.51	0.582	0.46	0.594	0.442	0.968	0.51	0.481	0.688	0.467	0.521	0.434
TIQMMYGCDVG [HLA-A_Y123_I121M]	0.845	0.575	0.414	1.22	0.718	0.555	0.561	0.987	0.532	1.38	0.525	0.501	1.31	0.408	0.822	0.513
TLGPFYPSRLF [CRYAA_Y18]	1.17	1.13	0.717	0.795	0.47	0.493	0.581	0.586	0.464	0.784	0.459	0.428	0.668	0.43	0.63	0.44
TLQVMYGCDVG [HLA-B_Y123_S121V]	0.941	0.883	0.515	1.1	0.564	0.56	0.596	0.862	0.509	1.23	0.508	0.593	1.1	0.56	0.849	0.589
TNIKRYHIAKV [HARS1_Y150]	0.967	0.986	0.81	0.408	0.301	0.322	0.301	0.328	0.278	0.553	0.379	0.264	0.43	0.358	0.375	0.348
TSGVVYKARNK [CDK2_Y19_Y15S]	0.742	0.866	0.565	0.53	0.392	0.358	0.354	0.447	0.519	0.661	0.359	0.462	0.427	0.479	0.51	0.516
TSNQEYLDVSM [FGFR1_Y766_L769V]	0.811	0.696	0.567	1.15	0.866	0.681	1.24	1.05	0.561	1.06	0.504	0.56	0.958	0.441	0.684	0.415
TSYQMYDKGLV [IARS2_Y231_F227S]	0.999	0.759	0.672	0.986	0.468	0.665	0.496	0.568	0.405	0.769	0.604	1.13	0.957	0.463	0.432	0.54
TTPAVYARVAK [CTRB2_Y246]	0.897	2.3	2.12	0.49	0.594	0.505	0.436	0.436	0.383	0.583	1.28	2.77	0.464	0.529	1.04	2.23
VATRWYQSPEL [CDKL5_Y177_R178Q]	0.983	0.955	1.16	1	0.508	0.774	0.88	0.754	0.531	0.832	0.43	0.578	0.566	0.679	0.512	0.443
VATRWYWSPEL [CDKL5_Y177_R178W]	0.971	0.731	1.94	1.06	4.61	3.81	5.92	5.13	0.512	1.15	0.464	0.532	1.14	6.3	0.771	0.647
VCDSDYSASRW [LRP5_Y1552]	0.979	0.697	0.586	1.16	0.691	0.877	0.449	0.684	0.455	1.02	0.603	0.518	0.731	0.382	0.737	0.518

Continued, in another order:

SH2 binding enrichment (Grb2 SH2)	SH2 binding enrichment (SHP2-C SH2)	SH2 binding enrichment (c-Src SH2)	Sequence	phosphorylation enrichment (AncSZ)	phosphorylation enrichment (EPHB1)	phosphorylation enrichment (EPHB2)	phosphorylation enrichment (FGFR1)	phosphorylation enrichment (FGFR3)	phosphorylation enrichment (Fer (mouse))	phosphorylation enrichment (Fes)	phosphorylation enrichment (Fyn)	phosphorylation enrichment (Hck)	phosphorylation enrichment (Jak2)	phosphorylation enrichment (MERTK)	phosphorylation enrichment (c-Abl (mouse))	phosphorylation enrichment (c-Src)
0.903	0.59	0.762	SVVAPYEPPEV [TP53_Y220_V218A]	1.34	0.629	0.617	0.528	0.753	0.578	1.48	0.67	0.624	1.1	0.629	1.08	0.672
0.807	0.537	0.469	SVVVPFEPPEV [TP53_Y220_Y220F]	1.04	0.578	0.628	0.533	0.668	0.467	1.22	0.41	0.502	1.06	0.39	0.866	0.552
0.87	0.57	0.43	SWSTSYSGFRC [NKAPL_Y91_Y96C_YF]	0.985	0.616	0.597	0.528	0.763	0.531	1.1	0.643	0.642	0.877	0.424	0.761	0.972
0.937	0.677	0.672	TDTAAYEERVR [SPTB_Y474]	0.931	0.692	0.767	0.581	0.494	0.407	1.25	0.795	0.686	1.9	1.2	1.2	0.753
0.753	0.593	0.432	TENAGYFFRIS	1.52	0.733	0.703	0.511	0.868	0.487	1.42	0.511	0.548	1.46	0.388	0.925	0.514
0.761	0.864	0.846	TFLRTYTDAMQ [TSPAN7_Y124]	0.791	0.51	0.488	0.438	0.548	0.379	0.813	0.396	0.506	0.726	0.37	0.552	0.413
0.977	0.894	0.545	TQFWRYFAGNL [SLC25A5_Y112_L111R]	0.918	0.6	0.589	0.494	0.655	0.351	1.05	0.509	0.493	0.951	0.433	1.55	0.489
0.891	26.3	19.8	TVSRPYSFIEF [SEC22B_Y110]	0.746	0.527	0.403	3.02	2.19	11.3	1.12	0.993	0.705	0.848	6.03	0.639	3.15
0.633	0.68	1.53	TVSTGYTQPQP [SARG_Y259_R258G]	0.675	0.378	0.374	0.523	0.629	0.513	0.64	0.442	0.47	0.508	0.371	0.511	0.479
0.748	0.696	0.556	TYEPNYGTVKQ [RAPGEF6_Y1447]	0.864	1.54	5.21	0.553	0.659	2.44	0.667	2.21	1.66	0.47	0.644	1.2	1.44
0.803	0.785	0.589	TYEPNYGTVKR [RAPGEF6_Y1447_Q1452R]	0.567	1.34	3.31	0.391	0.43	1.65	0.614	4.41	3.66	0.604	0.868	0.656	3.06
